Results on one molecule are retold here after PMC2885444 (The Biochemical journal, 2009).

The Kd is the free concentration of one partner at which half of the binding sites on the other are occupied at equilibrium, for simple one-to-one binding.

The target of the assay is CHD4 PHD2 finger, wild type (UniProt Q14839 446-501). The experiment in a line: other fluorescence titration + NMR titration.

Consider ARTKQTARKSTG (trimethyl-lysine at 4) [H3K4me3 peptide (12-mer histone tail peptide)], for which the Kd is 2 mM.
